B1: CNGA1 subunit of the bovine rod CNG channel (natural protein, UniProt Q00194 1-690, looked up)
chain: MKKVIINTWHSFVNIPNVVGPDVEKEITRMENGACSSFSGDDDDSASMFEESETENPHARDSFRSNTHGSGQPSQREQYLPGAIALFNVNNSSNKEQEPKEKKKKKKEKKSKPDDKNENKKDPEKKKKKEKDKDKKKKEEKGKDKKEEEKKEVVVIDPSGNTYYNWLFCITLPVMYNWTMIIARACFDELQSDYLEYWLAFDYLSDVVYLLDMFVRTRTGYLEQGLLVKEERKLIDKYKSTFQFKLDVLSVIPTDLLYIKFGWNYPEIRLNRLLRISRMFEFFQRTETRTNYPNIFRISNLVMYIIIIIHWNACVYFSISKAIGFGNDTWVYPDVNDPDFGRLARKYVYSLYWSTLTLTTIGETPPPVRDSEYFFVVADFLIGVLIFATIVGNIGSMISNMNAARAEFQARIDAIKQYMHFRNVSKDMEKRVIKWFDYLWTNKKTVDEREVLKYLPDKLRAEIAINVHLDTLKKVRIFADCEAGLLVELVLKLQPQVYSPGDYICKKGDIGREMYIIKEGKLAVVADDGITQFVVLSDGSYFGEISILNIKGSKAGNRRTANIKSIGYSDLFCLSKDDLMEALTEYPDAKGMLEEKGKQILMKDGLLDINIANAGSDPKDLEEKVTRMESSVDLLQTRFARILAEYESMQQKLKQRLTKVEKFLKPLIDTEFSAIEGSGTESGPTDSTQD
B2: CNGB1 subunit of the bovine rod CNG channel (natural protein)
chain: MLGWVQRVLPQPPGTPQKTKQEEEGTEPEPELEPKPETAPEETELEEVSLPPEEPCVGKEVAAVTLGPQGTQETALTPPTSLQAQVSVAPEAHSSPRGWVLTWLRKGVEKVVPQPAHSSRPSQNIAAGLESPDQQAGAQILGQCGTGGSDEPSEPSRAEDPGPGPWLLRWFEQNLEKMLPQPPKISEGWRDEPTDAALGPEPPGPALEIKPMLQAQESPSLPAPGPPEPEEEPIPEPQPTIQASSLPPPQDSARLMAWILHRLEMALPQPVIRGKGGEQESDAPVTCDVQTISILPGEQEESHLILEEVDPHWEEDEHQEGSTSTSPRTSEAAPADEEKGKVVEQTPRELPRIQEEKEDEEEEKEDGEEEEEEGREKEEEEGEEKEEEEGREKEEEEGEKKEEEGREKEEEEGGEKEDEEGREKEEEEGRGKEEEEGGEKEEEEGRGKEEVEGREEEEDEEEEQDHSVLLDSYLVPQSEEDRSEESETQDQSEVGGAQAQGEVGGAQALSEESETQDQSEVGGAQDQSEVGGAQAQGEVGGAQEQDGVGGAQDQSTSHQELQEEALADSSGVPATEEHPELQVEDADADSRPLIAEENPPSPVQLPLSPAKSDTLAVPGSATGSLRKRLPSQDDEAEELKMLSPAASPVVAWSDPTSPQGTDDQDRATSTASQNSAIINDRLQELVKLFKERTEKVKEKLIDPDVTSDEESPKPSPAKKAPEPAPEVKPAEAGQVEEEHYCEMLCCKFKRRPWKKYQFPQSIDPLTNLMYILWLFFVVLAWNWNCWLIPVRWAFPYQTPDNIHLWLLMDYLCDLIYLLDITVFQMRLQFVRGGDIITDKKEMRNNYVKSQRFKMDMLCLLPLDLLYLKFGVNPLLRLPRCLKYMAFFEFNNRLESILSKAYVYRVIRTTAYLLYSLHLNSCLYYWASAYEGLGSTHWVYDGVGNSYIRCYYWAVKTLITIGGLPDPRTLFEIVFQGLNYFTGVFAFSVMIGQMRDVVGAATAGQTYYRSCMDSTVKYMNFYKIPRSVQNRVKTWYEYTWHSQGMLDESELMVQLPDKMRLDLAIDVNYSIVSKVALFQGCDRQMIFDMLKRLRSVVYLPNDYVCKKGEIGREMYIIQAGQVQVLGGPDGKSVLVTLKAGSVFGEISLLAVGGGNRRTANVVAHGFTNLFILDKKDLNEILVHYPESQKLLRKKARRMLRNNNKPKEKSVLILPPRAGTPKLFNAALAAAGKMGAKGGRGGRLALLRARLKELAALEAAARQQQLLEQAKSSEDAAVGEEGSASPEQPPRPEPPAPEAPAPEPTAPEPLAPEAPAPEAPAPSSPPPASQERPEGDKDAARPEEHPVRIHVTLGPDPSEQILLVEVPEKQEEKEKKEEETEEKEEGEEARKEKEEE

Assays:
[1] = target: B2; test: cryo-EM structure
cryo-EM structure = target: the molecule itself; test: cryo-EM structure
bovine calmodulin = bovine calmodulin (bovine, UniProt P62157 1-149); test: limited proteolysis-coupled mass spectrometry

Binder	binding result [1]	binding result (cryo-EM structure)	binding result (bovine calmodulin)
B1	binds	binds	binds
B2	–	–	binds
